Experimental data published in PMC13482807.

Target: Microtubule star (Mts) L186A (Drosophila) (UniProt P23696)
Experiment: co-IP; S2 cells transfected with the tagged constructs; lysis in 50 mM Tris pH 7.5, 150 mM NaCl, 1% Triton X-100, 10% glycerol, 1 mM EDTA with phosphatase and protease inhibitors; FLAG-tagged proteins on anti-FLAG M2 agarose 1-2 h at 4 °C, eluted with 3x FLAG peptide; immunoblot (Figures EV3G,H, EV5C-E, 5B-D)

Sequence of UniProt P23696 (P23696 whole entry L186A): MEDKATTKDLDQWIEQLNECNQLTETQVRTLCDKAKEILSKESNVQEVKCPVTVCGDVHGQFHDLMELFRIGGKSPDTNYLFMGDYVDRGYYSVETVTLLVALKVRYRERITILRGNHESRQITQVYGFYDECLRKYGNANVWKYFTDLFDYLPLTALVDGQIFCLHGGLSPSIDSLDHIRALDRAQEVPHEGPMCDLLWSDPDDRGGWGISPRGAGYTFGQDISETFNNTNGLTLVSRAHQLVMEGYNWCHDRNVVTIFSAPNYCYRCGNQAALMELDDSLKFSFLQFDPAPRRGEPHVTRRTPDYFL

reduction of binding relative to Mts^WT: 50%
Substance: Connector of kinase to AP-1 (Cka), PP2A B''' regulatory subunit (natural protein)
